Test results: patent publication US20220396632A1 (VERSEAU THERAPEUTICS, published 2022)
Non-standard residues stand in square brackets, D forms with d. No end group written: not given here. *: point of attachment. Biotin = O=C1N[C@H]2[C@H](CS[C@H]2CCCCC(=O)*)N1; sY = N[C@@H](Cc1ccc(OS(=O)(=O)O)cc1)C(=O)O

T1: SulfoTyr C4 peptide (not fully specified; Y4, Y7 and Y9 sulfated (SO3); C-terminal biotin)
T1 construct: also called C4 alpha chain peptide; human sulfotyrosinylated C4 peptide
T1 peptide: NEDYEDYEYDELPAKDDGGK

T2: Sulfotyr fibrinogen γ peptide (not fully specified; Y8 and Y12 sulfated (SO3); C-terminal biotin)
T2 construct: also called Fibrinogen gamma peptide; human sulfotyrosinylated fibrinogen peptide
T2 peptide: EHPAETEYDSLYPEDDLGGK

T3: Human fibrinogen protein (ThermoFisher, RP-43142) (human, UniProt P02671 20-629; P02675 31-491; P02679 27-453, limits assumed, natural sulfotyrosines)
T3 construct: mature; Native dimer with 3 pairs of non-identical chains; also called gamma-fibrinogen; γ fibrinogen protein
T3 sequence (looked up) 1: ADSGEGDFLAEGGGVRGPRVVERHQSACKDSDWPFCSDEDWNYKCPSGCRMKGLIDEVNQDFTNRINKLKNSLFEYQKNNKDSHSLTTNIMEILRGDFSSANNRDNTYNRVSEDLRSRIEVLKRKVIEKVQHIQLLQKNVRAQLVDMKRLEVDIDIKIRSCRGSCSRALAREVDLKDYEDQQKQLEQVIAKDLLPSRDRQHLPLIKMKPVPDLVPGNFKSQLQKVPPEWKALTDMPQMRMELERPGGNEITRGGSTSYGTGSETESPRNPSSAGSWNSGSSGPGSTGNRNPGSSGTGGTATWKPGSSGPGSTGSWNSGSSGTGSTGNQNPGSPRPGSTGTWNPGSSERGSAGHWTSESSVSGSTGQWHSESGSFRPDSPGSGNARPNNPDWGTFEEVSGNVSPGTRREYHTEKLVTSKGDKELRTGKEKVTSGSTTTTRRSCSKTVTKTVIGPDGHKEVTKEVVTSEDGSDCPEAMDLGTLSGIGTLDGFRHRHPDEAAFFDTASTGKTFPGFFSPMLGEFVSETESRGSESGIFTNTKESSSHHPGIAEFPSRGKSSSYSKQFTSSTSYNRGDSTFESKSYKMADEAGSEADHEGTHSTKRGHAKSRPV
T3 sequence (looked up) 2: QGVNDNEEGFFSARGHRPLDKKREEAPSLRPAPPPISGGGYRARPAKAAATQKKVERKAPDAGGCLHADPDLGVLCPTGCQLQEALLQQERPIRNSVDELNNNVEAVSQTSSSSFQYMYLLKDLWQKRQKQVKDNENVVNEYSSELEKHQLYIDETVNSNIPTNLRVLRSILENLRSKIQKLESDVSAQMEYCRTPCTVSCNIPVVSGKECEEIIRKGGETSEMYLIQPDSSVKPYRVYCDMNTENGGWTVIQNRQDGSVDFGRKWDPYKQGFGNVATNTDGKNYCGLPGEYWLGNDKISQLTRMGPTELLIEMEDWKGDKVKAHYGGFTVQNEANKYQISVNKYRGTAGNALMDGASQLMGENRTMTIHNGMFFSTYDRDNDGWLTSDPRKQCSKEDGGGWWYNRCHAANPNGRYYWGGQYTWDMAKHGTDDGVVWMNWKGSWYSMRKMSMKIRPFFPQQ
T3 sequence (looked up) 3: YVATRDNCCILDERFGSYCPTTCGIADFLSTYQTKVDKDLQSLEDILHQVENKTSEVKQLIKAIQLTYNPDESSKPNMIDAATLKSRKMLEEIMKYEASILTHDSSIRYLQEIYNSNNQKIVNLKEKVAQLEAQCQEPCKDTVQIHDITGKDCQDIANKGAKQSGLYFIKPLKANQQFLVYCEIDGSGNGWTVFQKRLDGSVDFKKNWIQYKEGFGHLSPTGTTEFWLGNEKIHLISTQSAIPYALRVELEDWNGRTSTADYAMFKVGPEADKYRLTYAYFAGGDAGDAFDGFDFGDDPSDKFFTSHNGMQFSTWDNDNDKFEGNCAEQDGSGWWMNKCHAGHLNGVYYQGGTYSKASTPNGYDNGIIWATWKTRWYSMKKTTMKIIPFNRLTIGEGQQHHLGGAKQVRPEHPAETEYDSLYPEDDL

T4: SulfoCCK biotin peptide (human)
T4 construct: also called sulfotyrosine CCK peptide
T4 peptide: SHRISDRD[sY]MGWMDFGGK(Biotin)

T5: Sulfotyrosine CCR2b biotin peptide (human)
T5 construct: also called CCR2b peptide
T5 peptide: TTFFD[sY]D[sY]GAPSHGGK(Biotin)

T6: Sulfotyrosine D6 biotin peptide (human)
T6 construct: also called D6 peptide
T6 peptide: ENSSFY[sY][sY]D[sY]LDEVAFGGK(Biotin)

T7: Scrambled Y42,52,63(SO3) PSGL-1(42-62) biotin peptide (sulfotyrosine at peptide positions 1, 11 and 22; C-terminal Lys-biotin)
T7 peptide: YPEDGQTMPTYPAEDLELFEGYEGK

T8: Biotin PSGL-1(42-62) peptide, unmodified (human, C-terminal Lys-biotin)
T8 construct: Residues 42-62 followed by GGGK-biotin; also called WT; wild-type
T8 peptide: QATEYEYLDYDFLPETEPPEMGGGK

T9: Biotin Y46,48,51(SO3) PSGL-1(42-62) peptide (human, sulfotyrosine at Y46, Y48 and Y51; C-terminal Lys-biotin)
T9 construct: also called fully sulfated N-terminal PSGL-1 peptide
T9 peptide: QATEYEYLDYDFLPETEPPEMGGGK

B1: 02H08 (antibody, IgG4, V domains shown)
VH: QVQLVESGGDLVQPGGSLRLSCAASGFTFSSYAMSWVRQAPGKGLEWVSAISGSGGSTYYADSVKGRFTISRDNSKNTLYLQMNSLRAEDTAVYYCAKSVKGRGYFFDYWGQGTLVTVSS
VL: QSVLTQPPSVSAAPGQKVTISCSGSYFNIGNHYVSWYHQLPGTAPKLLIYDNNLRPSGIPDRFSASKSGTSATLGITGLQTGDEGDYYCGTWDSSLSGRVFGGGTKLTVL
B2: 02G01 (antibody, IgG4, V domains shown)
VH: EVQLVQSGAEVKKPGASVKVSCKASGYTFTSYGISWVRQAPGQGLEWMGWISAYNGNTNYAQKLQGRVTMTTDTSTSTAYMELRSLRSDDTAVYYCARVTRLPGGGYAFDIWGQGTMVTVSL
VL: QSVLTQPPSASGTPGQRITISCSGSTSNIGNKHVYWYQQFPGAAPKLLIHNTNKRPSGVPDRFSGSKSGTSASLAISGLQSDDEADYYCAAWDGSLSAWVFGGGTKLTVL
B3: 03B01 (antibody, IgG4, V domains shown)
VH: QMQLVQSGAEVKKPGASVKVSCRASGYRFSTYAISWVRQAPGQGLEWIGWISTHHGNTKYAQKFQDRVTMTADASTSIAYMELRSLRSDDTAVYYCAAAIGNYWGQGTLVTVSS
VL: EIVLTQSPAILSVSPGERASLSCRASQSVSSKLAWYQQKPGQAPRLLIYGASTRATGIPPRFSGSGSGTDFTLTISSLEPEDFAVYYCQQRSNWPLTFGGGTKVEIK
B4: 05A07 (antibody, IgG4, V domains shown)
VH: QVQLVQSGSEVKRPGASVKVSCKTSGYTFSNYGIAWVRQAPGQGLEWVGWVSAYNGKTGASQKLQGRVTMTTDRSTTTAYLELRSLQSDDTAVYYCARGVKGGLTGYARDYWGQGTLVIVSS
VL: DIVLTQSPRSLPVTLGQPASISCRSSQSLVNRAGDTYLNWFQQRPGQSPRRLIYKVSNRDSGVPDRFSGSGSGTDFTLKISRVEAEDVGVYYCMQGTQWPYTFGQGTKLEIK
B5: 06B02 (antibody, IgG4, V domains shown)
VH: QVQLVESGPGLVKPSETLSLTCTVSGVSVSSYYWTWVRQSPGKGLEWIGHVHHSGISNYNPSLKSRVVMSVDTSKNYFSLKLRSVTAADTAVYYCARGGPRISPTNWGQGTLVTVSS
VL: QPVLTQPPSVSKALRQTATLTCTGNSNNVGYQGATWLRQHQGHPPRLLSYRNNNRPSGISERFSASRSGNTATLTITGLQPDDEADYYCAAWDSSLSAWVFGGGTKLTVL

Target: T1, SulfoTyr C4 peptide
Assay: ELISA, 50 nM mAb
Procedure: (§1) Recombinant PSGL-1-hFc1 chimera protein consisting of PSGL-1's extracellular domain (ECD) served as a positive control. […] Primary antibody was added (25 ul per well) in duplicate at 50 nM in assay buffer (blocking buffer containing 0.05% Tween®20) into test and control (just blocked) wells and the plate incubated for 45 min at 37° C.

| Binder | binding normalized to PSGL-1 |
| --- | --- |
| B1 | 1.34 |
| B2 | 0.94 |
| B3 | 1.15 |
| B4 | 1.15 |
| B5 | 0.97 |

Target: T2, Sulfotyr fibrinogen γ peptide
Assay: ELISA, 50 nM mAb
Procedure: as §1

| Binder | binding normalized to PSGL-1 |
| --- | --- |
| B1 | 1.34 |
| B2 | 0.97 |
| B3 | 1.23 |
| B4 | 1.22 |
| B5 | 1.22 |

What follows are binders tested against T10, Human complement C4 protein (Millipore Sigma, Cat. 204886) (human, UniProt P0C0L4 20-675; P0C0L4 680-1446; P0C0L4 1454-1744, limits assumed, natural sulfotyrosines) (assay: ELISA, 50 nM mAb).
T10 construct: mature
Procedure: as §1

T10 sequence (P0C0L4 20-675 limits assumed, form in doubt, chain 1 of 3): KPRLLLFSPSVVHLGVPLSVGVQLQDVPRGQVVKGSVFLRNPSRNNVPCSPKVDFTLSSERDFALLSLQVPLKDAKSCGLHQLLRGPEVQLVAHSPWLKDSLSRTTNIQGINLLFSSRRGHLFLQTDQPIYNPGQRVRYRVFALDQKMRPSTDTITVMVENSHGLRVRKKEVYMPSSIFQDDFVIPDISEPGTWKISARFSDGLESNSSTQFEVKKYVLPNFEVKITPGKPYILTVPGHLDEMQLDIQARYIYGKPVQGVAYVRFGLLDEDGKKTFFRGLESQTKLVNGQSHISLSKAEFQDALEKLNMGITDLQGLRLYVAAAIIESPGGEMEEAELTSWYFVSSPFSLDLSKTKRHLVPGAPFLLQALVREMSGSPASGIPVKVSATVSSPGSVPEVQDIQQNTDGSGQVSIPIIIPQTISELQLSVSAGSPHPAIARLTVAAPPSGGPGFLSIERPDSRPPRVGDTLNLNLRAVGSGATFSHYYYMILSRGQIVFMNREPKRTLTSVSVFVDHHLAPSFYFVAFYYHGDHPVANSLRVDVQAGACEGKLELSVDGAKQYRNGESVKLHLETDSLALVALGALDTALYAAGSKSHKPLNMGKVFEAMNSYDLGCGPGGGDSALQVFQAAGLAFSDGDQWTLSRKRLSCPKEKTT
T10 sequence (P0C0L4 680-1446 limits assumed, form in doubt, chain 2 of 3): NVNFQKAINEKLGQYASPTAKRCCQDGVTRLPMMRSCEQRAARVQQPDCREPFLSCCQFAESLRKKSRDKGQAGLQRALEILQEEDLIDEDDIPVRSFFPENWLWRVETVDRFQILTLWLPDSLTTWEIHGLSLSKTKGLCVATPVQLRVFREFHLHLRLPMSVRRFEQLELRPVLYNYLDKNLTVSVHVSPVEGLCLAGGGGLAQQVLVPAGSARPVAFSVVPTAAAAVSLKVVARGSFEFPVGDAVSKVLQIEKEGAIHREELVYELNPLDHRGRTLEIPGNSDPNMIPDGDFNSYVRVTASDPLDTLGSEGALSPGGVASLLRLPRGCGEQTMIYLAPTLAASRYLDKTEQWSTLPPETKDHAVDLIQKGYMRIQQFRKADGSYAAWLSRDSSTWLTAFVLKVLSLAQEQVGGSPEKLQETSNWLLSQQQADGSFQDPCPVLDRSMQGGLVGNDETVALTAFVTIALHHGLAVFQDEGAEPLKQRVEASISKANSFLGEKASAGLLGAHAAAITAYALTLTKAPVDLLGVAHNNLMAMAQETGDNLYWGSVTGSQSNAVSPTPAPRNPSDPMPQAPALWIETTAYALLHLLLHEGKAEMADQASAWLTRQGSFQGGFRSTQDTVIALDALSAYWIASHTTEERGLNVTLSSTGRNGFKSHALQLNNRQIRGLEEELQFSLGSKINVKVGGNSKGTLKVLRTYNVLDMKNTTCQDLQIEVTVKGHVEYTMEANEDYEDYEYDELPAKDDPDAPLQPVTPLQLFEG
T10 sequence (P0C0L4 1454-1744 limits assumed, form in doubt, chain 3 of 3): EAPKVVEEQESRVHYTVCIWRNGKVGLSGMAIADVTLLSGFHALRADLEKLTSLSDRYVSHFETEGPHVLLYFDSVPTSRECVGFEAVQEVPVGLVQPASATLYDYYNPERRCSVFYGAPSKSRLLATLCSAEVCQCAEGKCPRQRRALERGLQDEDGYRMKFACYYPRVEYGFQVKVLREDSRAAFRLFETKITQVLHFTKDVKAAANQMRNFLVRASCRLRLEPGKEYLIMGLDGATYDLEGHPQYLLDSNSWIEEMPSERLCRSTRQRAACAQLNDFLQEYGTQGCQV

| Binder | binding normalized to PSGL-1 |
| --- | --- |
| B1 | 0.94 |
| B2 | 0.58 |
| B3 | 1.1 |
| B4 | 1.13 |
| B5 | 1.09 |

Each binder was assayed against T3, Human fibrinogen protein (ThermoFisher, …) (assay: ELISA, 50 nM mAb).
Procedure: as §1

| Binder | binding normalized to PSGL-1 |
| --- | --- |
| B1 | 0.11 |
| B2 | 0.07 |
| B3 | 0.11 |
| B4 | 0.53 |
| B5 | 0.03 |

Target: T4, SulfoCCK biotin peptide
Assay: ELISA, 50 nM mAb
Procedure: as §1

| Binder | binding normalized to PSGL-1 |
| --- | --- |
| B1 | 1.27 |
| B2 | 1.1 |
| B3 | 1.14 |
| B4 | 1.17 |
| B5 | 0.78 |

Target: T5, Sulfotyrosine CCR2b biotin peptide
Assay: ELISA, 50 nM mAb
Procedure: as §1

| Binder | binding normalized to PSGL-1 |
| --- | --- |
| B1 | 1.32 |
| B2 | 0.78 |
| B3 | 1.1 |
| B4 | 1.09 |
| B5 | 0.61 |

Target: T6, Sulfotyrosine D6 biotin peptide
Assay: ELISA, 50 nM mAb
Procedure: as §1

| Binder | binding normalized to PSGL-1 |
| --- | --- |
| B2 | 0.69 |
| B4 | 1.22 |

The binders below were run against T11, Cynomolgus PSGL-1(ECD)-hFc1 (cynomolgus macaque) (assay: ELISA, plate cyno PSGL-1(ECD)-Fc).
T11 construct: also called Cyno PSGL1-Fc; Cyno PSGL-1(ECD)-Fc
Procedure: Antibody binding to plate-immobilized cyno PSGL-1(ECD) was determined either at one concentration (20 nM) or by generating full antibody binding curves (0.003-200 nM). A typical ELISA was performed by overnight coating at 4° C. with 3 ug/mL/25 ul per well of recombinant cyno PSGL-1(ECD) protein in PBS, pH 7.4, in high binding half-well plates (Corning Cat. #3690). […] Anti-PSGL-1 IgG in assay buffer (blocking buffer containing 0.05% tween 20) was added into test and control wells (20 nM/25 ul/well) and the plate incubated for 45 min at 37° C. […] The plate was incubated for 45 min at 37° C., and mAb bound to plate-immobilized target determined at A450 nm using HRP substrate (3,3′,5,5′-tetramethylbenzidine (TMB)). For each antibody, duplicate values were averaged and assay background subtracted.

| Binder | binding result |
| --- | --- |
| B1 | no binding (tested: 20 nM) |
| B2 | no binding (tested: 20 nM) |
| B3 | no binding (tested: 20 nM) |
| B4 | no binding (tested: 20 nM) |
| B5 | no binding (tested: 20 nM) |

Target: T7, Scrambled Y42,52,63(SO3) PSGL-1(42-62) …
Assay: ELISA, immobilized biotin peptide
In short: (§2)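 In this ELISA, half-well high binding plates (Corning Cat. #3690) received 3 ug/mL/25 ul per well of biotin-tagged PSGL-1 peptides covering residues 42 to 62, diluted in PBS, pH 7.4, and coated overnight at 4° C. Duplicate readings for each antibody were averaged and the average assay background was subtracted. PSGL-1 protein or peptide was the positive control.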

| Binder | A450nm, 20 nM mAb | binding result |
| --- | --- | --- |
| B1 | 0.03 A450nm | no binding (tested: 20 nM) |
| B2 | – | no binding (tested: 20 nM) |
| B3 | 0.04 A450nm | no binding (tested: 20 nM) |
| B4 | – | no binding (tested: 20 nM) |
| B5 | – | no binding (tested: 20 nM) |

Target: T8, Biotin PSGL-1(42-62) peptide, unmodified
Assay: ELISA, immobilized biotin peptide
In short: as §2

| Binder | EC50 | A450nm, 20 nM mAb |
| --- | --- | --- |
| B1 | > 500 nM | – |
| B2 | 3.8 nM | – |
| B3 | ~500 nM | – |
| B4 | – | 0.17 A450nm |
| B5 | – | 0.37 A450nm |

Target: T9, Biotin Y46,48,51(SO3) PSGL-1(42-62) …
Assay: ELISA, immobilized biotin peptide
In short: as §2

| Binder | A450nm, 20 nM mAb | EC50 |
| --- | --- | --- |
| B1 | 2.45 A450nm | 1.6 nM |
| B2 | 2.72 A450nm | 0.03 nM |
| B3 | 2.62 A450nm | 0.04 nM |
| B4 | 2.44 A450nm | – |
| B5 | 2.57 A450nm | – |
